Assay results taken from patent US20250114450A1, “PHARMACEUTICAL COMBINATION CONTAINING ANTI-PD-1-ANTI-VEGFA BISPECIFIC ANTIBODY, AND USE THEREOF” (Akeso Biopharma, Inc., priority 2021, published 2025).

How the values were obtained:
[1] = biological target: FcγRI (Homo sapiens, UniProt P12314); assay: Affinity constant assay to FcγRI (Fortebio Octet); settings: N/A = no binding or extremely weak binding signal
Protocol: 1 μg/mL FcγRIa was immobilized on the HIS1K sensor for 50 s. The sensor was equilibrated in a buffer for 60 s, and the binding of the immobilized CD64 on the sensor to the antibodies at concentrations of 3.12-50 nM (two-fold dilution) was determined for 120 s. The antibody was dissociated in the buffer for 120 s. The sensor was refreshed 4 times in 10 mM glycine pH 1.5, each for 5 s. The detection temperature was 30° C. and the frequency was 0.3 Hz. The data were analyzed by 1:1 model fitting to obtain affinity constants.

[2] = biological target: T1, FcγRIIa_H131 (Homo sapiens, UniProt P12318); assay: Affinity constant assay to FcγRIIa_H131 (Fortebio Octet); settings: FcγRIIa_H131 immobilized on NTA sensor, antibody 12.5-200 nM, 30° C., 1:1 model; N/A = no binding or extremely weak binding signal
T1 sequence (P12318 34-217 limits assumed): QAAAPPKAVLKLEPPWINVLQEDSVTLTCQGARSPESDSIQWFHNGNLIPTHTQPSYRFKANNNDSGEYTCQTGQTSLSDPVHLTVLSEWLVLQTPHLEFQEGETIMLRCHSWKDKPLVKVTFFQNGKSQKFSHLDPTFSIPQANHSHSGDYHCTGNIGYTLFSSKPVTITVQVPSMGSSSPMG
Protocol: The antibody was dissociated in the buffer for 60 s. The sensor was refreshed in 10 mM glycine pH 1.7 and 10 nM nickel sulfate. […] The data were analyzed by 1:1 model fitting to obtain affinity constants.

[3] = biological target: FcγRIIIa_F158 (Homo sapiens, UniProt P08637); assay: Affinity constant assay to FcγRIIIa_F158 (Fortebio Octet); settings: FcγRIIIa_F158 immobilized on HIS1K sensor, antibody 31.25-500 nM, 30° C., 1:1 model; N/A = no binding or extremely weak binding signal
Protocol: 5 μg/mL FcγRIIIa_F158 was immobilized on the HIS1K sensor for 120 s. The sensor was equilibrated in a buffer for 60 s, and the binding of the immobilized hFcGR3A(F158)-his on the sensor to the antibodies at concentrations of 31.25-500 nM (serial two-fold dilution) was determined for 60 s. The antibody was dissociated in the buffer for 60 s. The sensor was refreshed 4 times in 10 mM glycine pH 1.5, each for 5 s. The detection temperature was 30° C. and the frequency was 0.3 Hz. The data were analyzed by 1:1 model fitting to obtain affinity constants.

[4] = biological target: C1q (Homo sapiens, UniProt P02745+P02746+P02747); assay: Affinity constant assay to C1q (Fortebio Octet); settings: antibody immobilized on FAB2G sensor, C1q 0.625-10 nM, 30° C., 1:1 model; N/A = no binding or extremely weak binding signal
Protocol: 50 μg/mL antibody was immobilized on the FAB2G sensor at an immobilization height of about 2.0 nm. […] The antigen and antibody were dissociated in the buffer for 60 s. The sensor was refreshed 4 times in 10 mM glycine pH 1.7, each for 5 s. The shaking speed of the sample plate was 1000 rpm, the temperature was 30° C. and the frequency was 0.6 Hz. The data were analyzed by 1:1 model fitting to obtain affinity constants. The data acquisition software was Fortebio Data Acquisition 7.0, and the data analysis software was Fortebio Data Analysis 7.0.

[5] = tested on: CHO-K1-PD1 cells overexpressing PD-1; assay: ADCP activity assay, murine macrophages and CHO-K1-PD1 cells, flow cytometry; format: cell-based; settings: murine macrophages + CHO-K1-PD1-CFSE cells, antibody 10, 1 and 0.1 μg/mL, 2 h, vs isotype control; FIG. 35
Protocol: The method is as follows:
The femoral bone marrow of C57 mice (purchased from Guangdong Medical Laboratory Animal Center) was first aseptically collected and lysed by erythrocyte lysis buffer on ice for 5 min. The lysis was terminated with DMEM complete medium (containing 10% FBS), and the lysate was centrifuged at 1000 rpm and washed twice. The cell pellet was resuspended in 10 mL of DMEM complete medium and M-CSF was added at a working concentration of 100 ng/mL. The cells were cultured for 7 days at 37° C. and 5% CO2 in a cell culture chamber for induction. Half of the medium was exchanged and M-CSF was added on Days 3 and 5. The induction of cells was completed on day 7. […] The supernatant was discarded and the cells were suspended in DMEM complete medium (containing 10% FBS) and counted. […] CHO-K1-PD1 cells were collected by conventional methods, centrifuged at 170×g for 5 min, resuspended, counted, analyzed for viability and washed once with PBS. […] The cells were counted, transferred to a 96-well plate and centrifuged at 1000×g for 5 min, and the supernatant was discarded. […]
Macrophages in the system were APC^+ positive, and macrophages involved in phagocytosis were APC and CFSE dual positive. The phagocytosis rate was determined as the ratio of the number of dual positive cells to the number of APC positive cells, and the antibody-mediated ADCP activity was evaluated. […]

[6] = tested on: MDA-MB-231 cells (human breast cancer cells); format: in vivo; settings: VP101(hG1DM) 3 mg/kg weekly, olaparib 50 mg/kg daily, alone or in combination; FIG. 39
Excerpt: 23 days after grafting, the mice were randomly divided into 4 groups of 6 animals by tumor volume. The day of grouping was defined as DO, and olaparib dosing was started on day D0. […] The regimen of the combination therapy group is as follows: the drugs were formulated separately and administered sequentially (no certain order or time interval was required, and one treatment should be given after the completed administration of the other). After the administration, the length and width of tumors in each group were measured, and the tumor volume was calculated.

[7] = tested on: SK-OV-3 human ovarian cancer cells; format: in vivo; settings: VP101(hG1DM) 14 mg/kg weekly, olaparib 100 mg/kg daily, alone or in combination; FIG. 41
Excerpt: 39 days after grafting, the mice were intraperitoneally injected with 3 million activated PBMCs and randomly divided into 4 groups of 6 animals by tumor volume. The day of grouping was defined as D0, and dosing was started on the day of grouping D0. The regimen of the combination therapy group is as follows: the drugs were formulated separately and administered sequentially (no certain order or time interval was required, and one treatment should be given after the completed administration of the other). After the administration, the length and width of tumors in each group were measured, and the tumor volume was calculated.

Chain of FcγRI (P12314 16-374): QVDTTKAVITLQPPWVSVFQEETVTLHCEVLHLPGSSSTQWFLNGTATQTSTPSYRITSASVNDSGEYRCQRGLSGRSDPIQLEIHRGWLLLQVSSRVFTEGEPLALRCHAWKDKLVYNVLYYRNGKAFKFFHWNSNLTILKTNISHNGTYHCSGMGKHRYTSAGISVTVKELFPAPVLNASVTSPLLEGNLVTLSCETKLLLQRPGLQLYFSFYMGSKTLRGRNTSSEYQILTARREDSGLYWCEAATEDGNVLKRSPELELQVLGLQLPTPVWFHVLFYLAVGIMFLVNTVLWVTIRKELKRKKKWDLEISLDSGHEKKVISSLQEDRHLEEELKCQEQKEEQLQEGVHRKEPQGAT
Chain of C1q (P02745 23-245): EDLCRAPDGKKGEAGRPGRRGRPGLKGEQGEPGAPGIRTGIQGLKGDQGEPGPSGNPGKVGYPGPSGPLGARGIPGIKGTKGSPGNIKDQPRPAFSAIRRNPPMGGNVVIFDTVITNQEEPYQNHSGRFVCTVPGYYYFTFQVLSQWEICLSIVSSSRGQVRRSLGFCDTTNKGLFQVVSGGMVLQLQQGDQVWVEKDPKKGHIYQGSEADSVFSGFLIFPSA
Chain of C1q (P02746 28-253): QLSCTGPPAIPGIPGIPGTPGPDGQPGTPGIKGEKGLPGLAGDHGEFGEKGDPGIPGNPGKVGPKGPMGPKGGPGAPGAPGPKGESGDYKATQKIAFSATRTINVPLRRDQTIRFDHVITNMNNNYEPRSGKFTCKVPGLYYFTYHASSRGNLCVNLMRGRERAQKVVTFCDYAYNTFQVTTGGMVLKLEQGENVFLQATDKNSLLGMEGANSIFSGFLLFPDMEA
Chain of C1q (P02747 29-245): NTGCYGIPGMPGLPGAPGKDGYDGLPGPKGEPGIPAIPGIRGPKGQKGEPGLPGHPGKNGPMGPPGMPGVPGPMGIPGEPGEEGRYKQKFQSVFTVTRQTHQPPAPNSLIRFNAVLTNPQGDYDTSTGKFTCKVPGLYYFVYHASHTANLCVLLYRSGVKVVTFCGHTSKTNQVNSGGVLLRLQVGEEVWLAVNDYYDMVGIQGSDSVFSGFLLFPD
Chain of FcγRIIIa_F158 (P08637 17-208 limits assumed): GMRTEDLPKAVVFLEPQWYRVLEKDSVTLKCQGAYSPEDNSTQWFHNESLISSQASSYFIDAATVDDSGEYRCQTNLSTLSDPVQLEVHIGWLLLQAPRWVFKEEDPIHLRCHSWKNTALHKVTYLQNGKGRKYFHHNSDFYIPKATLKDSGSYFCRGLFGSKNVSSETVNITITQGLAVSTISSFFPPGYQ

| Molecule | Kd ([1]; FcγRIa immobilized on HIS1K sensor, antibody 3.12-50 nM, 30° C., 1:1 model) | Rmax to FcγRI [1] | kdis to FcγRI [1] | KD (affinity constant) to FcγRIIa_H131 [2] | KD (affinity constant) to FcγRIIIa_F158 [3] | KD (affinity constant) to C1q [4] | ADCP activity (phagocytic rate, P %) [5] | tolerability / body weight of tumor-bearing mice [6] | tolerability / body weight of tumor-bearing mice [7] |
| --- | --- | --- | --- | --- | --- | --- | --- | --- | --- |
| Nivolumab: approved PD-1 antibody (Opdivo) purchased from BMS as a reference antibody | 6.2 nM | 0.48-0.53 nm | 0.00432 s⁻¹ | no binding or an extremely weak binding signal | no binding or an extremely weak binding signal | no binding or an extremely weak binding signal | significant ADCP effect | – | – |
| O=C(c1cc(Cc2n[nH]c(=O)c3ccccc23)ccc1F)N1CCN(C(=O)C2CC2)CC1 [olaparib] | – | – | – | – | – | – | – | no effect on the body weight | no effect on the body weight |
